IntAct's records for PubMed 25533949

B1: Tyrosine--tRNA ligase, cytoplasmic (Homo sapiens), P54577 (parent)
chain: MGDAPSPEEKLHLITRNLQEVLGEEKLKEILKERELKIYWGTATTGKPHVAYFVPMSKIADFLKAGCEVTILFADLHAYLDNMKAPWELLELRVSYYENVIKAMLESIGVPLEKLKFIKGTDYQLSKEYTLDVYRLSSVVTQHDSKKAGAEVVKQVEHPLLSGLLYPGLQALDEEYLKVDAQFGGIDQRKIFTFAEKYLPALGYSKRVHLMNPMVPGLTGSKMSSSEEESKIDLLDRKEDVKKKLKKAFCEPGNVENNGVLSFIKHVLFPLKSEFVILRDEKWGGNKTYTAYVDLEKDFAAEVVHPGDLKNSVEVALNKLLDPIREKFNTPALKKLASAAYPDPSKQKPMAKGPAKNSEPEEVIPSRLDIRVGKIITVEKHPDADSLYVEKIDVGEAEPRTVVSGLVQFVPKEELQDRLVVVLCNLKPQKMRGVESQGMLLCASIEGINRQVEPLDPPAGSAPGEHVFVKGYEKGQPDEELKPKKKVFEKLQADFKISEECIAQWKQTNFMTKLGSISCKSLKGGNIS

Variants of: B1
Details: with parp1_human PARP1, P09874
Sequence of parp1_human PARP1, P09874 (P09874 whole entry): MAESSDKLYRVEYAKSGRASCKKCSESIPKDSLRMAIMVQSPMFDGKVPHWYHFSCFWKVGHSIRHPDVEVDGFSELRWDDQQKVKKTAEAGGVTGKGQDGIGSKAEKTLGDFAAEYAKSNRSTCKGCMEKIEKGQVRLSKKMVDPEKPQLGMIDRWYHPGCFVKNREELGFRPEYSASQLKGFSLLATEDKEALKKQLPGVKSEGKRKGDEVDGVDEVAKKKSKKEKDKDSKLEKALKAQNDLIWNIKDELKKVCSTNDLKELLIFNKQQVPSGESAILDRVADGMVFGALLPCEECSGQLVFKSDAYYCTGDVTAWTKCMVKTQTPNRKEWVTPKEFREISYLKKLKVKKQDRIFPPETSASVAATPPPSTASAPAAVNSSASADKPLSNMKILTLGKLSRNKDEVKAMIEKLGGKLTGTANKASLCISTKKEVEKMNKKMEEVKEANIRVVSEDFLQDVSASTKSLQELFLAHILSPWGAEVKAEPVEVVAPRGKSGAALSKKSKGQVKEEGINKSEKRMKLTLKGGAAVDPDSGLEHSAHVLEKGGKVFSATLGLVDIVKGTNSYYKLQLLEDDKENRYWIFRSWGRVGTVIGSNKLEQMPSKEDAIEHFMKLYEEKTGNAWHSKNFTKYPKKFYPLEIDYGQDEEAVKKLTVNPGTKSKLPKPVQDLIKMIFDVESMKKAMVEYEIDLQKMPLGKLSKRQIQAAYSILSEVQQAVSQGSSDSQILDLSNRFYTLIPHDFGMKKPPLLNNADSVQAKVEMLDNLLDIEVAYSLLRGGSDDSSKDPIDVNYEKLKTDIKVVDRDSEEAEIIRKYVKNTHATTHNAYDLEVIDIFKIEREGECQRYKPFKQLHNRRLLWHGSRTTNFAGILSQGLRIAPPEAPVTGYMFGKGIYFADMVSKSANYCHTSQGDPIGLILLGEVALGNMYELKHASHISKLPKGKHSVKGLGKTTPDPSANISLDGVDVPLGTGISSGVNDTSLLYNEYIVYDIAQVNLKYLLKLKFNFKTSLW

Question: Y341A was tested. Which “effect of a mutation on the interaction” value did it give?
Answer: Its value is “increasing interaction strength”.
